The source of these data is PMC12840758.

The target of this series is T1, MtbCspB (cold shock protein CspB) (Mycobacterium tuberculosis H37Rv) (UniProt I6WZM9).
T1 sequence: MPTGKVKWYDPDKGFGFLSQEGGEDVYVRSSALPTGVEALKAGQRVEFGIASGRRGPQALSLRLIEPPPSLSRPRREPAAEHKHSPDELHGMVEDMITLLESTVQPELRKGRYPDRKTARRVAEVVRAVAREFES
As to the kind of experiment: SPR. The note with it: […] (or 250 mM) NaCl, 10 mM MgCl2, 0.05% Tween-20, temperature not stated.

GUGGUCAGUCGAGUGGUUUUUU [oligoU RNA] had a Kd of 18.8 nM. Next, MTS1338 sRNA (DrrS, ncRv11733): 0.296 nM; MTS0997 sRNA (Mcr11, ncRv1264Ac): 0.112 nM.
